Measurements reported in patent publication US20210054097A1 (Novo Nordisk, published 2021).
Ends that are not written are not given here.

T1: FX activation peptide 12-mer QATSSSGEAPDS (human)
T1 peptide: QATSSSGEAPDS-biotin

T2: FX activation peptide 12-mer TSSSGEAPDSIT (human)
T2 peptide: TSSSGEAPDSIT-biotin

T3: FX activation peptide 12-mer SSGEAPDSITWK (human)
T3 peptide: SSGEAPDSITWK-biotin

T4: FX activation peptide 12-mer GEAPDSITWKPY (human)
T4 peptide: GEAPDSITWKPY-biotin

T5: FX activation peptide 12-mer EAPDSITWKPYD (human)
T5 peptide: EAPDSITWKPYD-biotin

T6: FX activation peptide 12-mer APDSITWKPYDA (human)
T6 peptide: APDSITWKPYDA-biotin

T7: FX activation peptide 12-mer PDSITWKPYDAA (human)
T7 peptide: PDSITWKPYDAA-biotin

T8: FX activation peptide 12-mer SITWKPYDAADL (human)
T8 peptide: SITWKPYDAADL-biotin

T9: FX activation peptide 12-mer ITWKPYDAADLD (human)
T9 peptide: ITWKPYDAADLD-biotin

T10: FX activation peptide 12-mer TWKPYDAADLDP (human)
T10 peptide: TWKPYDAADLDP-biotin

T11: FX activation peptide 12-mer KPYDAADLDPTE (human)
T11 peptide: KPYDAADLDPTE-biotin

T12: FX activation peptide 12-mer PYDAADLDPTEN (human)
T12 peptide: PYDAADLDPTEN-biotin

T13: FX activation peptide 12-mer DAADLDPTENPF (human)
T13 peptide: DAADLDPTENPF-biotin

T14: FX activation peptide 12-mer ADLDPTENPFDL (human)
T14 peptide: ADLDPTENPFDL-biotin

T15: FX activation peptide 12-mer DLDPTENPFDLL (human)
T15 peptide: DLDPTENPFDLL-biotin

T16: FX activation peptide 12-mer TENPFDLLDFNQ (human)
T16 peptide: TENPFDLLDFNQ-biotin

T17: FX activation peptide 12-mer ENPFDLLDFNQT (human)
T17 peptide: ENPFDLLDFNQT-biotin

T18: FX activation peptide 12-mer LLDFNQTQPERG (human)
T18 peptide: LLDFNQTQPERG-biotin

T19: FX activation peptide 12-mer LDFNQTQPERGD (human)
T19 peptide: LDFNQTQPERGD-biotin

T20: FX activation peptide 12-mer QTQPERGDNNLT (human)
T20 peptide: QTQPERGDNNLT-biotin

T21: FX activation peptide 12-mer TQPERGDNNLTR (human)
T21 peptide: TQPERGDNNLTR-biotin

T22: FX activation peptide 12-mer DPTENPFDLLDF (human)
T22 peptide: DPTENPFDLLDF-biotin

T23: FX activation peptide 12-mer LDPTENPFDLLD (human)
T23 peptide: LDPTENPFDLLD-biotin


Columns and labels:
Test in all cases: peptide ELISA
[1] = target: T1, FX activation peptide 12-mer …
How it was run: (§1)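 Nanobodies (FLAG-tagged) or IgG antibodies, 2 μg/mL, incubated 1 h on C-terminally biotinylated peptide captured via streptavidin, washing buffer pH 8.60 containing CaCl₂ and Tween 20. Read-out: HRP-conjugated secondary antibody with TMB colour development.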

[2] = target: T2, FX activation peptide 12-mer …
How it was run: as §1

[3] = target: T3, FX activation peptide 12-mer …
How it was run: as §1

[4] = target: T4, FX activation peptide 12-mer …
How it was run: as §1

[5] = target: T5, FX activation peptide 12-mer …
How it was run: as §1

[6] = target: T6, FX activation peptide 12-mer …
How it was run: as §1

[7] = target: T7, FX activation peptide 12-mer …
How it was run: as §1

[8] = target: T8, FX activation peptide 12-mer …
How it was run: as §1

[9] = target: T9, FX activation peptide 12-mer …
How it was run: as §1

[10] = target: T10, FX activation peptide 12-mer …
How it was run: as §1

[11] = target: T11, FX activation peptide 12-mer …
How it was run: as §1

[12] = target: T12, FX activation peptide 12-mer …
How it was run: as §1

[13] = target: T13, FX activation peptide 12-mer …
How it was run: as §1

[14] = target: T14, FX activation peptide 12-mer …
How it was run: as §1

[15] = target: T15, FX activation peptide 12-mer …
How it was run: as §1

[16] = target: T16, FX activation peptide 12-mer …
How it was run: as §1

[17] = target: T17, FX activation peptide 12-mer …
How it was run: as §1

[18] = target: T18, FX activation peptide 12-mer …
How it was run: as §1

[19] = target: T19, FX activation peptide 12-mer …
How it was run: as §1

[20] = target: T20, FX activation peptide 12-mer …
How it was run: as §1

[21] = target: T21, FX activation peptide 12-mer …
How it was run: as §1

[22] = target: T22, FX activation peptide 12-mer …
How it was run: as §1

[23] = target: T23, FX activation peptide 12-mer …
How it was run: as §1

Row | ELISA signal relative to background [1] | ELISA signal relative to background [2] | ELISA signal relative to background [3] | ELISA signal relative to background [4] | ELISA signal relative to background [5] | ELISA signal relative to background [6] | ELISA signal relative to background [7] | ELISA signal relative to background [8] | ELISA signal relative to background [9] | ELISA signal relative to background [10] | ELISA signal relative to background [11] | ELISA signal relative to background [12] | ELISA signal relative to background [13] | ELISA signal relative to background [14] | ELISA signal relative to background [15] | ELISA signal relative to background [16] | ELISA signal relative to background [17] | ELISA signal relative to background [18] | ELISA signal relative to background [19] | Binder | ELISA signal relative to background [20] | other results
1 | 1.12 | 1.06 | 1.06 | 1.15 | 1.11 | 1.09 | 1.17 | 1.11 | 1.06 | 1.17 | 1.1 | 1.08 | 1.18 | 1.11 | 1.21 | 3.14 | 8.06 | 1.13 | 1.12 | Nb 729C08 (VHH, monovalent Nanobody; also called Nb 729008; not shown: C-terminal FLAG3 and HIS6 tag) VHH: EVQLVESGGGVVQPGGSLRLSCAASGFTFSDYAMSWVRQAPGKGLEWVSGITGGGRTYYADSVKGRFTISRDNSKNTLYLQMNSLRPEDTALYYCAAAILTRTRRTYDYWGQGTLVTVSS | 1.04 | ELISA signal relative to background [21]: 1.37
2 | 1.08 | 1.12 | 0.96 | 1.05 | 1.01 | 1.04 | 0.95 | 1.13 | 1.28 | 0.99 | 1.33 | 1.06 | 1.1 | 0.98 | 1.06 | 9.12 | 17.8 | 1.1 | 0.98 | Nb 729A04 (VHH, monovalent Nanobody; not shown: C-terminal FLAG3 and HIS6 tag) VHH: EVQLVESGGGVVQPGGSLRLSCAASGFTFSDYAMSWVRQAPGKGLEWVSGITSGGGRTYYADSVKGRFTISRDNSKNTLYLQMNSLRPEDTALYYCAAVRTLGLRGSYDYWGQGTLVTVSS | 1.11 | ELISA signal relative to background [22]: 4.03; ELISA signal relative to background [21]: 1.09
3 | 1.14 | 1.2 | 1.22 | 1.24 | 1.24 | 1.16 | 1.24 | 1.18 | 1.2 | 1.26 | 1.17 | 1.2 | 1.24 | 1.25 | 1.26 | 2.1 | 6.57 | 1.1 | 1.14 | Nb 730C03 (VHH, monovalent Nanobody; also called Nb 730003; not shown: C-terminal FLAG3 and HIS6 tag) VHH: EVQLVESGGGVVQPGGSLRLSCVASGFTFSDYAMSWVRQAPGKGLEWVSGITSGSGRTYYADSVKGRFTISRDNSKNTVYLQMNSLRPEDTALYYCAAAILRGYRKTYDYWGQGTLVTVSS | 1.1 | ELISA signal relative to background [23]: 1.3; ELISA signal relative to background [21]: 1.06
